Reference: patent US20240181074A1 (SHENZHEN ENDURING BIOTECH, published 2024)

Assays:
[1] = molecular target: T1, human CD19-Fc protein (AcroBiosystems, Cat. CD19-H5259 / Code CD9-H5259) (human, UniProt P15391 20-291); test: BiaCore SPR, ligand captured by Fc capture
T1 construct: not shown: Fc of the bought CD19-Fc
T1 sequence (looked up): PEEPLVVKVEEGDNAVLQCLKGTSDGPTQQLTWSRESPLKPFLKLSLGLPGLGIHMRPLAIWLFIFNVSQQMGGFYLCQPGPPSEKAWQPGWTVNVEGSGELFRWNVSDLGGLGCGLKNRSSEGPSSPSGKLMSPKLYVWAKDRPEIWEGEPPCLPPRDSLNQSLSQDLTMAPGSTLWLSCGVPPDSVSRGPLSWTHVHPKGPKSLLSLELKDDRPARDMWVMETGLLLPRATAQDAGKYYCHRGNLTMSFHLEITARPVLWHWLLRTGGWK
Description: General procedure: Diluted human CD19 (AcroBiosystems, Cat. CD19-H5259) or human CD3E&3D (AcroBiosystems, Cat. CDD-H52W0) were captured on the sensor chip through Fc capture method. The capture time for human CD3E & CD3D and for human CD19 was set for 12 s and 12-30 s respectively and capture flow rate was […]. Each sample tested was serially diluted into 6-8 concentrations. The association time and dissociation time for the analytes were set for 180 s and 420 s respectively, and the flow rate for the analyte was set at […]. For surface regeneration, 10 mM Glycine-HCl buffer was used; the contact time was set for 30 s and the flow rate was […]. Flow cell 1 and blank injection of buffer in each cycle were used as double references for Response Units subtraction. All data were processed using BiaCore T2000 Evaluation software (version 3.1).

human CD19 on cells = molecular target: T2, human CD19 on cells (human, UniProt P15391 20-556); test: cell-based or functional assay
T2 sequence (looked up): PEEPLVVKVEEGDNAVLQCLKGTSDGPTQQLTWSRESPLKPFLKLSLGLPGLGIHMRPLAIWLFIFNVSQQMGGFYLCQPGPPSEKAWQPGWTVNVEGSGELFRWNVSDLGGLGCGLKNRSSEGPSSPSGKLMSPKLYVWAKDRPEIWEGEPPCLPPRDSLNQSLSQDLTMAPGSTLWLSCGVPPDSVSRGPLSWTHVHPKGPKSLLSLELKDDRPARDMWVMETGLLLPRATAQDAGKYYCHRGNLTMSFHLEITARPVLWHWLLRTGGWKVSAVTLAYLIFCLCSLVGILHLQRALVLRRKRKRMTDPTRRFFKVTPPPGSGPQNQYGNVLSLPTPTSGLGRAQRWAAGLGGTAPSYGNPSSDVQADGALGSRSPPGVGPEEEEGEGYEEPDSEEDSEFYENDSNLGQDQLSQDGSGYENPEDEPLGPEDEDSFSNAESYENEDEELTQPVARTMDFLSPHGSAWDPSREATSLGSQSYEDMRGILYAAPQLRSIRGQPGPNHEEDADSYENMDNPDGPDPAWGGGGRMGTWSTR

B1: anti-CD19 scFv (SCACD19) (scFv)
scFv: DIQLTQSPASLAVSLGQRATISCKASQSVDYDGDSYLNWYQQIPGQPPKLLIYDASNLVSGIPPRFSGSGSGTDFTLNIHPVEKVDAATYHCQQSTEDPWTFGGGTKLEIKGCGGGSGGGGSGGGGSQVQLQQSGAELVRPGSSVKISCKASGYAFSSYWMNWVKQRPGQGLEWIGQIWPGDGDTNYNGKFKGKATLTADESSSTAYMQLSSLASEDSAVYFCARRETTTVGRYYYAMDYWGQGTTVTVSSHHHHHH
Question: Which results are given for B1?
Answer: Kd [1]: 0.0653 nM; koff [1]: 0.000343 s⁻¹; kon [1]: 5.26e+06 M⁻¹ s⁻¹

B2: anti-CD19 scFv-Linker (anti-CD19-Linker) (scFv)
scFv: DIQLTQSPASLAVSLGQRATISCKASQSVDYDGDSYLNWYQQIPGQPPKLLIYDASNLVSGIPPRFSGSGSGTDFTLNIHPVEKVDAATYHCQQSTEDPWTFGGGTKLEIKGCGGGSGGGGSGGGGSQVQLQQSGAELVRPGSSVKISCKASGYAFSSYWMNWVKQRPGQGLEWIGQIWPGDGDTNYNGKFKGKATLTADESSSTAYMQLSSLASEDSAVYFCARRETTTVGRYYYAMDYWGQGTTVTVSSHHHHHH
modifications: conjugated to a linker (linker is a much smaller PEG11); the residue is not given
notes: Linker conjugate of SCACD19; also called SCACD19-linker
Question: Which Kd [1] does the source give for B2 here?
Answer: The Kd was 0.111 nM.

Question: What about the koff [1] of the same binder?
Answer: Its koff is 0.000309 s⁻¹.

Question: And the kon [1]?
Answer: Its kon is 2.79e+06 M⁻¹ s⁻¹.

B3: JY108 (PEGylated BsAb anti-CD3 x anti-CD19) (bispecific antibody)
scFv 1: DIQLTQSPASLAVSLGQRATISCKASQSVDYDGDSYLNWYQQIPGQPPKLLIYDASNLVSGIPPRFSGSGSGTDFTLNIHPVEKVDAATYHCQQSTEDPWTFGGGTKLEIKGCGGGSGGGGSGGGGSQVQLQQSGAELVRPGSSVKISCKASGYAFSSYWMNWVKQRPGQGLEWIGQIWPGDGDTNYNGKFKGKATLTADESSSTAYMQLSSLASEDSAVYFCARRETTTVGRYYYAMDYWGQGTTVTVSS
scFv 2: not shown
modifications: conjugated through a linker to the branched terminal of mPEG (structure given only as a drawing); residue not given
notes: also called PEGylated T-BsAb JY108
Question: With B3 as the binder, how does the “EC50 of cell killing (MTS cytotoxicity), Nalm-6, E:T=5:1” value (human CD19 on cells) read?
Answer: Its value is 0.0376 mg/L.

Question: And the “EC50 of cell killing (MTS cytotoxicity), Nalm-6, E:T=10:1” value (human CD19 on cells)?
Answer: The value was 0.0147 mg/L.

Question: And the “EC50 of cell killing (MTS cytotoxicity), REH” value (human CD19 on cells)?
Answer: The value was 0.0104 mg/L.

Question: And the “EC50 of cell killing (MTS cytotoxicity), Raji” value (human CD19 on cells)?
Answer: The value was 0.159 mg/L.

Question: And the Kd [1]?
Answer: The Kd was 1.44 nM.

Question: What about the koff [1] of the same binder?
Answer: Its koff is 0.000566 s⁻¹.

Question: What about the kon [1] of the same binder?
Answer: Its kon is 392000 M⁻¹ s⁻¹.
